± gives the uncertainty stated by the source.

The chains are these.
B1: Zinc finger homeobox protein 4, residues 2086 to 2141; numbered along this chain, Q86UP3 (parent)
chain: RPRTRITDDQLKILRAYFDINNSPSEEQIQEMAEKSGLSQKVIKHWFRNTLFKERQ

The variants in this series derive from B1. In words: abundance fitness (aPCA) (normalised: wild type 0, dead -1); higher = more abundant; growth selection in yeast, the domain comes from the species named. Conditions: Homo sapiens.
As for RPRTRITDDQLKILRAYFDINNSPSEEQIQEMAEKSALSQKVIKHWFRNTLFKERQ [G37A], the abundance fitness is -0.164 ± 0.076.

For the variant RPRTRITDDQLKILRAYFDINNSPSEEQIQEMAEKSELSQKVIKHWFRNTLFKERQ [G37E], the abundance fitness was -0.092 ± 0.088. Regarding RPRTRITDDQLKILRAYFDINNSPSEEQIQEMAEKSILSQKVIKHWFRNTLFKERQ [G37I], the abundance fitness is -0.602 ± 0.18. In the case of RPRTRITDDQLKILRAYFDINNSPSEEQIQEMAEKSHLSQKVIKHWFRNTLFKERQ [G37H], the abundance fitness is -0.137 ± 0.15. On to RPRTRITDDQLKILRAYFDINNSPSEEQIQEMAEKSFLSQKVIKHWFRNTLFKERQ [G37F], for which the abundance fitness was -0.46 ± 0.18. With RPRTRITDDQLKILRAYFDINNSPSEEQIQEMAEKSLLSQKVIKHWFRNTLFKERQ [G37L], the abundance fitness was -0.014 ± 0.086. For the variant RPRTRITDDQLKILRAYFDINNSPSEEQIQEMAEKSCLSQKVIKHWFRNTLFKERQ [G37C], the abundance fitness was -0.132 ± 0.095.

RPRTRITDDQLKILRAYFDINNSPSEEQIQEMAEKSKLSQKVIKHWFRNTLFKERQ [G37K]: the abundance fitness is -0.054 ± 0.1.

As for RPRTRITDDQLKILRAYFDINNSPSEEQIQEMAEKSDLSQKVIKHWFRNTLFKERQ [G37D], the abundance fitness was -0.07 ± 0.097. Take RPRTRITDDQLKILRAYFDINNSPSEEQIQEPAEKSGLSQKVIKHWFRNTLFKERQ [M32P]: the abundance fitness is -1.2 ± 0.24. Regarding RPRTRITDDQLKILRAYFDINNSPSEEQIQECAEKSGLSQKVIKHWFRNTLFKERQ [M32C], the abundance fitness is -0.154 ± 0.084. For RPRTRITDDQLKILRAYFDINNSPSEEQIQEYAEKSGLSQKVIKHWFRNTLFKERQ [M32Y] the value was -0.212 ± 0.12; for RPRTRITDDQLKILRAYFDINNSPSEEQIQEKAEKSGLSQKVIKHWFRNTLFKERQ [M32K], -0.923 ± 0.13. As to RPRTRITDDQLKILRAYFDINNSPSEEQIQEGAEKSGLSQKVIKHWFRNTLFKERQ [M32G], the abundance fitness was -0.672 ± 0.07. RPRTRITDDQLKILRAYFDINNSPSEEQIQEVAEKSGLSQKVIKHWFRNTLFKERQ [M32V]: the abundance fitness was -0.276 ± 0.084.

Consider RPRTRITDDQLKILRAYFDINNSPSEEQIQERAEKSGLSQKVIKHWFRNTLFKERQ [M32R], for which the abundance fitness was -0.911 ± 0.07.

As for RPRTRITDDQLKILRAYFDINNSPSEEQIQEAAEKSGLSQKVIKHWFRNTLFKERQ [M32A], the abundance fitness was -0.55 ± 0.11. With RPRTRITDDQLKILRAYFDINNSPSEEQIQEEAEKSGLSQKVIKHWFRNTLFKERQ [M32E], the abundance fitness is -1.01 ± 0.15. RPRTRITDDQLKILRAYFDINNSPSEEQIQESAEKSGLSQKVIKHWFRNTLFKERQ [M32S]: the abundance fitness was -0.564 ± 0.08. For the variant RPRTRITDDQLKILRAYFDINNSPSEEQIQEQAEKSGLSQKVIKHWFRNTLFKERQ [M32Q], the abundance fitness was -0.837 ± 0.14.

For the variant RPRTRITDDQLKILRAYFDINNSPSEEQIQEDAEKSGLSQKVIKHWFRNTLFKERQ [M32D], the abundance fitness was -1.37 ± 0.26.

In the case of RPRTRITDDQLKILRAYFDINNSPSEEQIQEFAEKSGLSQKVIKHWFRNTLFKERQ [M32F], the abundance fitness is -0.547 ± 0.14. Under RPRTRITDDQLKILRAYFDINNSPSEEQIQEHAEKSGLSQKVIKHWFRNTLFKERQ [M32H] stands -0.686 ± 0.14; under RPRTRITDDQLKILRAYFDINNSPSEEQIQEWAEKSGLSQKVIKHWFRNTLFKERQ [M32W], -0.511 ± 0.083. On to RPRTRITDDQLKILRAYFDINNSPSEEQIQETAEKSGLSQKVIKHWFRNTLFKERQ [M32T], for which the abundance fitness is -0.706 ± 0.14. On to RPRTRITDDQLKILRAYFDINNSPSEEQIQENAEKSGLSQKVIKHWFRNTLFKERQ [M32N], for which the abundance fitness was -1 ± 0.2. Consider RPRTRITDDQLKILRAYFDINNSPSEEQIQEIAEKSGLSQKVIKHWFRNTLFKERQ [M32I], for which the abundance fitness was -0.244 ± 0.12. For RPRTRITDDQLKILRAYFDINNSPSEEQIQEMAEKDGLSQKVIKHWFRNTLFKERQ [S36D] the value was -0.857 ± 0.13; for RPRTRITDDQLKILRAYFDINNSPSEEQIQEMAEKFGLSQKVIKHWFRNTLFKERQ [S36F], -0.357 ± 0.1.

Take RPRTRITDDQLKILRAYFDINNSPSEEQIQEMAEKMGLSQKVIKHWFRNTLFKERQ [S36M]: the abundance fitness is -0.213 ± 0.12.

Take RPRTRITDDQLKILRAYFDINNSPSEEQIQEMAEKLGLSQKVIKHWFRNTLFKERQ [S36L]: the abundance fitness was -0.214 ± 0.079. For the variant RPRTRITDDQLKILRAYFDINNSPSEEQIQEMAEKQGLSQKVIKHWFRNTLFKERQ [S36Q], the abundance fitness is -0.342 ± 0.11. With RPRTRITDDQLKILRAYFDINNSPSEEQIQEMAEKGGLSQKVIKHWFRNTLFKERQ [S36G], the abundance fitness is -0.28 ± 0.064.

For the variant RPRTRITDDQLKILRAYFDINNSPSEEQIQEMAEKRGLSQKVIKHWFRNTLFKERQ [S36R], the abundance fitness is -0.533 ± 0.066. RPRTRITDDQLKILRAYFDINNSPSEEQIQEMAEKTGLSQKVIKHWFRNTLFKERQ [S36T]: the abundance fitness is -0.108 ± 0.094.

As for RPRTRITDDQLKILRAYFDINNSPSEEQIQEMAEKHGLSQKVIKHWFRNTLFKERQ [S36H], the abundance fitness was -0.367 ± 0.13. As for RPRTRITDDQLKILRAYFDINNSPSEEQIQEMAEKEGLSQKVIKHWFRNTLFKERQ [S36E], the abundance fitness is -0.244 ± 0.085. With RPRTRITDDQLKILRAYFDINNSPSEEQIQEMAEKYGLSQKVIKHWFRNTLFKERQ [S36Y], the abundance fitness is -0.267 ± 0.1. Take RPRTRITDDQLKILRAYFDINNSPSEEQIQEMAEKIGLSQKVIKHWFRNTLFKERQ [S36I]: the abundance fitness was -0.082 ± 0.15. In the case of RPRTRITDDQLKILRAYFDINNSPSEEQIQEMAEKNGLSQKVIKHWFRNTLFKERQ [S36N], the abundance fitness is -0.374 ± 0.18. Under RPRTRITDDQLKILRAYFDINNSPSEEQIQEMAEKWGLSQKVIKHWFRNTLFKERQ [S36W] stands -0.42 ± 0.084; under RPRTRITDDQLKILRAYFDINNSPSEEQIQEMAEKCGLSQKVIKHWFRNTLFKERQ [S36C], -0.002 ± 0.1; under RPRTRITDDQLKILRAYFDINNSPSEEQIQEMAEKPGLSQKVIKHWFRNTLFKERQ [S36P], -0.874 ± 0.11. In the case of RPRTRITDDQLKILRAYFDINNSPSEEQIQEMAEKAGLSQKVIKHWFRNTLFKERQ [S36A], the abundance fitness is -0.06 ± 0.077. In the case of RPRTRITDDQLKILRAYFDINNSPSEEQIQEMAEKKGLSQKVIKHWFRNTLFKERQ [S36K], the abundance fitness was -0.824 ± 0.15. For RPRTRITDDQLKILRAYFDINNSPSEEQIQEMYEKSGLSQKVIKHWFRNTLFKERQ [A33Y], the abundance fitness is -0.531 ± 0.21.

For the variant RPRTRITDDQLKILRAYFDINNSPSEEQIQEMTEKSGLSQKVIKHWFRNTLFKERQ [A33T], the abundance fitness amounted to 0.029 ± 0.1.
